# Laboratory results reported in patent US20210147564A1 (published 2021).
# B1: heavy chain-only anti-BCMA antibody (UniAb) with the heavy chain variable region of SEQ ID NO: 13 (antibody, V domains shown)
# VH: QVQLVESGGGLVQPGGSLRLSCAASGFTFSSHAMTWVRQAPGKGLEWVAAISGSGDFTHYADSVKGRFTISRDNSKNTVSLQMNNLRAEDTAVYYCAKDEDGGSLLGYRGQGTLVTVSS
# B2: heavy chain-only anti-BCMA antibody (UniAb) with the heavy chain variable region of SEQ ID NO: 15 (antibody, V domains shown)
# VH: EVQLLESGGGLVQPGGSLRLSCAASGFTFSSYAMSWVRQAPGKGLEWVSSISGSGDYIYYADSVKGRFTISRDISKNTLYLQMNSLRAEDTAVYYCAKEGTGANSSLADYRGQGTLVTVSS
# B3: heavy chain-only anti-BCMA antibody (UniAb) with the heavy chain variable region of SEQ ID NO: 12 (antibody, V domains shown)
# VH: QVQLVESGGGLVQPGGSLRLSCAASGFTFTNHAMSWVRQAPGKGLELVSSISGNGRTTYYADSVKGRFTISRDISKNTLDLQMNSLRAEDTAVYYCAKDGGETLVDSRGQGTLVTVSS
# Biological target: BCMA protein of Cynomolgus macaque (Cynomolgus macaque, UniProt A0A2K5UD97 1-53)
# Test: Octet off-rate
# Chain of BCMA protein of Cynomolgus macaque (A0A2K5UD97 entry or part of it): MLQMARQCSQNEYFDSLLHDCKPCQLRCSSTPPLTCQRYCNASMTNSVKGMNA
row,koff,Binder
1,0.00189 s⁻¹,B1
2,0.000322 s⁻¹,B2
3,0.000941 s⁻¹,B3

# Biological target: T1, human BCMA ECD protein (Abcam ab50089) (human, UniProt Q02223 1-54)
# T1 chain: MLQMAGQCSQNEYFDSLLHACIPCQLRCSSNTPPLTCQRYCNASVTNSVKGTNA
# Test: Octet off-rate
row,koff,Binder
1,< 1e-07 s⁻¹,B1
2,< 1e-07 s⁻¹,B2
3,< 1e-07 s⁻¹,B3
